Source: publication doi:10.1101/2022.04.26.489478, “Shuffled ATG8 interacting motifs form an ancestral bridge between UFMylation and C53-mediated autophagy” (bioRxiv, 2022)

Molecular target: T1, mCherry tagged HsC53 (human, UniProt Q96JB5 1-506)
T1 construct: C53 (CDK5RAP3), Homo sapiens; also called human C53; mCh-HsC53; source: E. coli Rosetta2 (DE3) pLysS, purified (HisTrap, ion exchange, SEC)
T1 sequence (looked up): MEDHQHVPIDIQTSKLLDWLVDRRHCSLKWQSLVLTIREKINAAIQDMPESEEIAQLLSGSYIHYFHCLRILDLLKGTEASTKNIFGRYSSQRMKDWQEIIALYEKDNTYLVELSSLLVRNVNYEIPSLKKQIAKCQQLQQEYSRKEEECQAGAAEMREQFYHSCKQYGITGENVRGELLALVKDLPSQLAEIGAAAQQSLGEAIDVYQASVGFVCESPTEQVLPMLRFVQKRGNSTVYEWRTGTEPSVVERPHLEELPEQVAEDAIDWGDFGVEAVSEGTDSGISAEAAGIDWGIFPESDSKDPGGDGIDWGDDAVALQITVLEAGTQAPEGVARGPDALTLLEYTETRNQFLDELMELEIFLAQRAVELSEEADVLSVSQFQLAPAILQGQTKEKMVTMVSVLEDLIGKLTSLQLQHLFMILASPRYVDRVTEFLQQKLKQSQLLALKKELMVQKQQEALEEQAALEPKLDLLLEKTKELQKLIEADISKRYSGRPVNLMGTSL
Experiment: microscopy-based on-bead protein-protein interaction assay; GST-tagged bait (2 µM) on Glutathione Sepharose 4B beads, 1 µM mCherry tagged partner with or without competitor, 25 mM HEPES pH 7.5, 150 mM NaCl, 1 mM DTT, 30-60 min at RT, confocal imaging; fluorescence normalized to the control condition
Conditions: both partners purified

B1: GST-GABARAP (natural protein, human, UniProt O95166 1-117, looked up)
chain: MKFVYKEEHPFEKRRSEGEKIRKKYPDRVPVIVEKAPKARIGDLDKKKYLVPSDLTVGQFYFLIRKRIHLRAEDALFFFVNNVIPPTSATMGQLYQEHHEEDFFLYIAYSDESVYGL
notes: GABARAP, human ATG8 isoform; also called human ATG8 isoform GABARAP; source: E. coli Rosetta2 (DE3) pLysS; in bacterial lysate (pull-downs) and purified (on-bead assays)
B1: binds.
